Results on 5 substances are retold here after paper PMC7019770.

The target of this test is PRRSV SD16 virions (PRRSV-2 strain SD16). The test is described as follows: ELISA-based virus capture assay. The conditions noted are these: plates coated with PRA mutant proteins; detection with PRRSV-convalescent swine serum and HRP-labeled goat anti-swine IgG; parent: est. 1.3; read off a plot. (An ELISA detects its analyte on a solid surface through an enzyme-linked reagent.)
With “PRA, C-terminal domain of MYH9 (recombinant, wild type) E1670A”, the response came out at 0.95 OD450.

In the case of “PRA, C-terminal domain of MYH9 (recombinant, wild type) E1670A; K1673A; E1679A; I1683A”, the response stood at 1.1 OD450.

On to “PRA, C-terminal domain of MYH9 (recombinant, wild type) E1679A”, for which the response was 0.99 OD450.

As for “PRA, C-terminal domain of MYH9 (recombinant, wild type) I1683A”, the response amounted to 0.88 OD450.

As to “PRA, C-terminal domain of MYH9 (recombinant, wild type) K1673A”, the response worked out at 0.9 OD450.
